Reference: the supplement of paper PMC12764529
± gives the half width of the 95% confidence interval.

Assay: folding stability dG unfold (combined trypsin and chymotrypsin); higher = more stable
How it was run: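 Bayesian fitting of sequencing counts gave K50 for each design. Unfolding free energy followed by setting this against a sequence-predicted unfolded-state K50 and a shared folded-state K50, either per protease or with trypsin and chymotrypsin combined. The designs, under 80 residues and lacking cysteine, were digested in a PA-tagged cDNA display format at 11 threefold-diluted protease concentrations and without protease, and only those with AlphaFold2 dimer inter-PAE above 15 were kept.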
With “SGMTTSLGKSTTTTLPDGTTVKTEVKLTRPSSGTVVVTTDTTTVTPGTGTTTTTPTTTVVPVPPGVPGLLSA [r9_709_JUSTAS]” the “folding stability dG unfold” value was < -1 kcal/mol. In the case of “KTIEIMIPMEQMRNNKPIPADQFLKELAQEFGGPNVKPKVEPMPDNMMKATITLPNGRKIEITDPGAIKIKS [r1_168_TrROS]”, the “folding stability dG unfold” value is reported as < -1 kcal/mol. In the case of “SALPPEEVKKLARDIMREFNPDNGFKPEDVDVDPNEGTIMVDWRMPDPNGKRHRMPFQIQVDKDGKIKISAG [r14_183_TrROS]”, the “folding stability dG unfold” value is reported as < -1 kcal/mol. In the case of “SAGGSAGGSAGGTKEFPIWFGGEPVKVTVEPDPDGQPKIEIEEPGGAEITIPPGGPLQFSAGGSAGGSAGGS [r10_989_TrROS]”, the “folding stability dG unfold” value is reported as 0.343 ± 0.21 kcal/mol. In the case of “SAGGSAGGSAGGVKPGEVLPDGRLLVTWDEETNELTVYFEDTETITLKAPPPVVVSPEDLSAGGSAGGSAGG [r7_522_TrROS_Hall]”, the “folding stability dG unfold” value is reported as -0.614 ± 0.46 kcal/mol. In the case of “SAGPKIVEVKPSNGKLEITVEIPVPGAPVLFLNPAKNATIESDPNGRITITLDSEGEYEIIIGNPVFDSAGG [r19_227_TrMRF]”, the “folding stability dG unfold” value is reported as 0.0526 ± 0.087 kcal/mol. With “SAGGSAGGSAGSYEFDPSKSALVRVTLQPPDGVPVEIEIPVEELEEILPGDRPVLSIEVSSAGGSAGGSAGG [r17_449_JUSTAS]” the “folding stability dG unfold” value was -0.838 ± 0.51 kcal/mol. In the case of “SAGGSAGGMVPITDLTVDSEEFVLPTGGVATRETITRPATGLVYEKVVFTPKPGVVEQREVALLSAGGSAGG [r6_895_JUSTAS]”, the “folding stability dG unfold” value is reported as < -1 kcal/mol. In the case of “SAGGSAGGEPITPEEAREIADYFMEEHGAKEVEVKVDPNGGIIKIDVTHPNDGRKYEREIQIEKSAGGSAGG [r6_550_TrROS]”, the “folding stability dG unfold” value is reported as < -1 kcal/mol. For “SGNSLNEKGESYPITVKAPDPNVTPEQVKAALEKAGAKVLEIKRPPKGSTLTVSVEITDPEKVKEAFEKLSA [r9_1154_JUSTAS]”, the “folding stability dG unfold” value was < -1 kcal/mol. With “SAGVEELAEKIAKELEGEDFEVEAEVDPEKGTITVVVKTPDYVVVKEIYIDPKNDKPVMDVKVFKPNESAGG [r19_2_TrMRF]” the “folding stability dG unfold” value was -0.954 ± 0.7 kcal/mol. For “SAGGSLPADAEVTEVVEDPSKGVVTVKVTVRDSEGKVVEERTVVTPVEPVPPLSPENLKKNLLLTLLSAGGS [r16_697_JUSTAS]”, the “folding stability dG unfold” value was -0.741 ± 0.94 kcal/mol. With “SAGGSAGGSMVLIIVPPSKPELAEEKAKELAEKGEIKEYEIKTVSSEEEAEKLAKNYEKVILESAGGSAGGS [r12_679_JUSTAS]” the “folding stability dG unfold” value was -0.324 ± 0.28 kcal/mol. In the case of “SAGGSAGGSAGGSMKVEKFTEIITTPDGKPELIVEKEKTTTPNGGTKTTVTKIIPAKLLSAGGSAGGSAGGS [r4_117_JUSTAS]”, the “folding stability dG unfold” value is reported as < -1 kcal/mol. In the case of “SAGGSAGGSAGSPPGSTTLRAETVVVELPAAEAYTPEGERVELPRVIVEETVERELEAGLSAGGSAGGSAGG [r11_907_JUSTAS]”, the “folding stability dG unfold” value is reported as -0.216 ± 0.31 kcal/mol. With “SAGGSAGGSSPDIEVEITVDAPPGARILGTDGKPVEIPASNPKVKIIVIEGDNSFFIKTEPVGSAGGSAGGS [r12_338_TrMRF]” the “folding stability dG unfold” value was < -1 kcal/mol. With “SMGLTKKERVITIVKEAYAKNPDKKITLRYADIEATTPEKMSAEEIEKLLKEVTGIKDIKIYPVKPDDPESA [r9_738_TrMRF]” the “folding stability dG unfold” value was < -1 kcal/mol. For “SAGGSAYGKKKNDPDGNPKYEMEPQPTIEVPVTIPIFDNNNNPLLEIPIPASMPISDINDEIKDLFSAGGSA [r15_309_TrROS]”, the “folding stability dG unfold” value was < -1 kcal/mol. With “SAGGSAGGSATVDEVIKEAREEAREEHPNYPPGQTHTIKIRDPDNGEKVKIRFTNDGKIEISAGGSAGGSAG [r3_441_TrROS]” the “folding stability dG unfold” value was < -1 kcal/mol. In the case of “SAGGSAMPPGQPWKIKRTIPFKDPNGWKITIYRMPDDGHVWVRWEPPNGGEREVWMPAEEAEDALKSAGGSA [r15_2_TrROS]”, the “folding stability dG unfold” value is reported as 0.307 ± 0.58 kcal/mol. For “SAGGSAGGEKKYEVVEKKELTLEDIEKADEILVVGKDGKVFKSRDDVKAAAEKGEKITVYVVKKSAGGSAGG [r6_827_TrROS_Hall]”, the “folding stability dG unfold” value was < -1 kcal/mol. For “SAGGSAGGSAGKKRKIEINIIVPPEGAKQMAKMIKDELAQRNRDVDIEIKIIPVPPGQPLSAGGSAGGSAGG [r11_973_TrROS]”, the “folding stability dG unfold” value was < -1 kcal/mol. For “SAGGSAGGSAGGSMGPVPVWITIKIPDKNGKPKRKIEIPMEGPNMTPSEIRKQAKPFIKSAGGSAGGSAGGS [r4_375_TrROS]”, the “folding stability dG unfold” value was < -1 kcal/mol. With “SAGGSAGGPYMVMIRMPNNPQPIWFPPDEVKEALKEGDEKRIKFPGGGMEMTIRNVDDIEIMPPSAGGSAGG [r6_509_TrROS]” the “folding stability dG unfold” value was < -1 kcal/mol. With “SAGGSAGGSAGGSGGSMEVSISEAPPEYLVVTVYDPATGKTTVRKVSPSEVKSLKYEGGSAGGSAGGSAGGS [r4_494_JUSTAS]” the “folding stability dG unfold” value was < -1 kcal/mol. With “SAGGSAGGSAGGMKTYSVEELRARLEEEGKEPTLEELASLPGAKVELNKETKEATIVLKPSAGGSAGGSAGG [r7_180_TrROS_Hall]” the “folding stability dG unfold” value was < -1 kcal/mol. For “SAGGSAGGSAPLEELLDVIRSVPANTRAEFPIIVETETGYVPYIARVENPEPGGALIEIEKASAGGSAGGSA [r18_493_TrMRF]”, the “folding stability dG unfold” value was < -1 kcal/mol. With “SAGGSAGGSAGPGEPVPIRLKIYGPNGQPHTHPFPVKNPEEFKDNLRFPVPNGWAVEIEYSAGGSAGGSAGG [r11_671_TrROS]” the “folding stability dG unfold” value was < -1 kcal/mol. In the case of “SPIVTDLPPKEATRVEVEALVEELEAKGEPPREVVVYDPSRGVPLATIPVTSREELLAAVEAGRPFRVLLSA [r9_718_JUSTAS]”, the “folding stability dG unfold” value is reported as < -1 kcal/mol. With “SAGGSAGGSAALGDESLHRPVPVVSTSPVTTTTTLTLTPPNGVTVTESVTTTTTVYGSGAASAGGSAGGSAG [r3_380_JUSTAS]” the “folding stability dG unfold” value was 0.172 ± 0.13 kcal/mol. For “SAGGSAGGAEELAEELERALPEGEVTEVRVEVVELPEGEPEVVVTVRVKRDGKEVKELPVIRVPSAGGSAGG [r6_630_TrROS_Hall]”, the “folding stability dG unfold” value was -0.997 ± 0.44 kcal/mol. In the case of “SAGGKVEIYNPNGQWKEITPEDLEGLKPGTIWQMPNGPVMIEIPGNDETIPIPMDSPNDIKDAIKDALSAGG [r13_962_TrROS]”, the “folding stability dG unfold” value is reported as -0.183 ± 0.18 kcal/mol. For “SAGGSAEKPTATLRPVVLNYPEGPISRDPSGNVVNSPEELAKEVKEEILKKTGLPVEEIVVLVEPPSAGGSA [r15_415_JUSTAS]”, the “folding stability dG unfold” value was < -1 kcal/mol. With “SAGGSAMVPEDEGLIVVERDVPFDKAEEFVEEVIEELGIPPEKVKKIELFEEKVEDGPALRALVYLSAGGSA [r15_934_TrMRF]” the “folding stability dG unfold” value was < -1 kcal/mol. With “SAGGSAGGSAGGSMRYDIVEDPETGTVTINRYVVYPPGIEKKTEGEIVPASTVPPGDLLGSAGGSAGGSAGG [r7_455_JUSTAS]” the “folding stability dG unfold” value was < -1 kcal/mol. In the case of “SAGGWMPIEDLKDIPENMPPGYKITIRNPGNGQEGTFEYNKDGGIKIEDPGKPVEIPPGAYIDEIEPSAGGS [r8_162_TrROS]”, the “folding stability dG unfold” value is reported as -0.679 ± 0.71 kcal/mol. With “SAGGSAGGSSPIVVEEEPDRYVITIPPSQPELVEEVLEKLGLPAEDITRTLIPEGLVRYEVPGSAGGSAGGS [r12_493_JUSTAS]” the “folding stability dG unfold” value was < -1 kcal/mol. For “SAGGSAGGSAMKPERIELPGNEVAVIEKVPEAGVYIVTFKKPEGDEPLGEKIFKPDEIDLKLESAGGSAGGS [r20_190_JUSTAS]”, the “folding stability dG unfold” value was < -1 kcal/mol. With “SAGGSAGGNPEDKERRYVRMPIKVTVPNPNGKKIKIPIYMPVGDPERMMPRAIKFARELAKKGLSAGGSAGG [r6_903_TrROS]” the “folding stability dG unfold” value was < -1 kcal/mol. For “SAGSMPVESTSERKLEKDGVATVTTTSYPDASPGGTDTVTVTLHPGESESATTTYTQPPGAPPLTVSLESAG [r5_47_JUSTAS]”, the “folding stability dG unfold” value was < -1 kcal/mol. In the case of “SAGGSAGGSAGGGESAAPVVATTVSEEVFEEPGGTVIRRYTVTTPAATTTLSTEVLPPLLSAGGSAGGSAGG [r7_43_JUSTAS]”, the “folding stability dG unfold” value is reported as < -1 kcal/mol. With “SAGGSAGGSAGGSPPTAKELVKELREKFPPGYPITIKHPDKTIRIMMNPGPGKFQVEIYSAGGSAGGSAGGS [r4_150_TrROS]” the “folding stability dG unfold” value was < -1 kcal/mol. In the case of “SAGGSAGGSAGGKRITIMFNTPEQIEELAENLGFDDIEVEPFPNEDGRPYVQVTIRLPPSAGGSAGGSAGGS [r10_494_TrROS]”, the “folding stability dG unfold” value is reported as < -1 kcal/mol. For “SAGGSAGGSGMEEAIEKAKKEILEKNPDLPPNAVVNEPILVKDPSTDEEYVIPVTFTIPENNLSAGGSAGGS [r12_591_JUSTAS]”, the “folding stability dG unfold” value was -0.61 ± 0.67 kcal/mol. For “SAGGSATIKEGQVITRTVTDPSTGKEYEVEITIKKVTKYPASPEGILREEYEIEVKKSPKVSPLKLSAGGSA [r15_248_JUSTAS]”, the “folding stability dG unfold” value was < -1 kcal/mol. For “SAGGSAGGSAGGEVEVPKDASLVVTYPNGERKEVPVEDKVPVKGLPVYLLGPDGTLREIDSAGGSAGGSAGG [r7_54_TrMRF]”, the “folding stability dG unfold” value was < -1 kcal/mol. In the case of “SAGGSALPPDQRLVVIDLGREPGVTPDEPVEVPEELIEKIKKENPNVKLVEVKHEGDKVTLYIAIKSAGGSA [r2_383_JUSTAS]”, the “folding stability dG unfold” value is reported as < -1 kcal/mol.
